Measured values published in patent US20170022269A1 (AbbVie / Abbott, published 2017).
Changes are numbered by the printed parent chain.

T1: Aβ(20-42) globulomer (human)
T1 construct: also called truncated Aβ(20-42) globulomer; Aβ(20-42) globular oligomer
T1 peptide: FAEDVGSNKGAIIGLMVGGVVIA

T2: Aβ(12-42) globulomer (human)
T2 construct: also called truncated Aβ(12-42) globulomer
T2 peptide: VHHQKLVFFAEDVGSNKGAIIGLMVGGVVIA

B1: monoclonal antibody 10F11 (antibody, V domains shown)
VH: QVQLQQSGPELVKPGASVKMSCKASGYTFTSYVMHWVKQRPGQGLEWIGYIYPYNDGTKYNEKFKGKATLTSDKSSSTVYMELSSLTSEDSTVYYCTVEGATWDGYFDVWGTGTTVTVSS
VL: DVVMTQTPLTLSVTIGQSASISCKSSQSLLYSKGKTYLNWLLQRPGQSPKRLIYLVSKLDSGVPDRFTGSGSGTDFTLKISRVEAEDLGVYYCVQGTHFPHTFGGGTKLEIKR
notes: Mouse monoclonal antibody from hybridoma; also called ML15-10F11.3D9; hybridoma ATCC PTA-7239
B2: monoclonal antibody 5F7 (antibody, V domains shown)
VH: QVQLKQSGAELVRPGTSVKMSCKASGYTFTTFYIHWVKQRPGQGLEWIGMIGPGSGNTYYNEMFKDKATLTVDTSSSTAYMQLSSLTSEDSAVYFCARAKSARAAWFAYWGQGTLVTVSA
VL: DVLMTQTPLSLPVSLGDQASISCRSSQSVVQSNGNTYLEWYLQKPGQSPKLLIYKVSNRFSGVPDRFSGSGSGTDFTLKISRVEAEDLGVYYCFQGSHVPPTFGGGTKLEIKR
notes: Mouse monoclonal antibody from hybridoma, Protein A purified; also called mAb 5F7; ML15-5F7.5B10
B3: monoclonal antibody 2F2 (antibody, V domains shown)
VH: B2 VH
VL: B2 VL
notes: Mouse monoclonal antibody from hybridoma; also called ML15-2F2.3E12; hybridoma ATCC PTA-7408
B4: monoclonal antibody 4D10 (antibody, V domains shown)
VH: QVQLKQSGPSLIQPSQSLSITCTVSGFSLTSYGVHWVRQSPGKGLEWLGVIWRGGRIDYNAAFMSRLSITKDNSKSQVFFKMNSLQADDTAIYYCARNSDVWGTGTTVTVSS
VL: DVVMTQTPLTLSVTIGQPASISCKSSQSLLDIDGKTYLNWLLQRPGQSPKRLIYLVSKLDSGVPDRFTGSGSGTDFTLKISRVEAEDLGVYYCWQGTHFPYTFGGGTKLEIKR
notes: Mouse monoclonal antibody from hybridoma; also called ML13-4D10.3F3; hybridoma ATCC PTA-7405
B5: monoclonal antibody 7C6 (antibody, V domains shown)
VH: EVKLVESGGGLVKPGGSLKLSCAASGFTFSSYAMSWVRQTPAKRLEWVASIHNRGTIFYLDSVKGRFTISRDNVRNTLYLQMSSLRSEDTAIYYCTRGRSNSYAMDYWGQGTSVTVSS
VL: DVLVTQSPLSLPVRLGDQASISCRSTQTLVHRNGDTYLEWYLQKPGQSPKSLIYKVSNRFSGVPDRFSGSGSGTDFTLKISRVEAEDLGVYYCFQGSHVPYTFGGGTKLEIKR
notes: Mouse monoclonal antibody from hybridoma; also called ML13-7C6.1D4.4A9.5G8; hybridoma ATCC PTA-7240
B6: monoclonal antibody 7E5 (antibody, V domains shown)
VH: EVKLVESGGGLVQPGGSRKLSCAASGFTFSDYEMVWVRQAPGEGLEWVAYISSGSRTIHYADTVKGRFTISRDNPKNTLFLQMSSLRSEDTAMYYCARTLLRLHFDYWGQGTILTVSS
VL: DIVMSQSPSSLAVSVGEKVTMSCRSSQSLFYRSNQKNFLAWYQQKPGQSPKLLIYWASTRESGVPDRFTGSGSGTDFTLTISSVKAEDLAVYYCQQYYSYPWTFGGGTKLEIKR
notes: Mouse monoclonal antibody from hybridoma; also called ML15-7E5.5E12; hybridoma ATCC PTA-7809
B7: monoclonal antibody 4B7 (antibody, V domains shown)
VH: B6 VH
VL: B6 VL
notes: Mouse monoclonal antibody from hybridoma; also called ML15-4B7.3A6; hybridoma ATCC PTA-7242
B8: monoclonal antibody 10C1 (antibody, V domains shown)
VH: B6 VH with E43K, S52N, R56G
VL: B6 VL with R24K, R32S, S33R, R60G, Y98F
notes: Mouse monoclonal antibody from hybridoma; also called ML15-10C1.5C6.3H4; hybridoma ATCC PTA-7810
B9: monoclonal antibody 6A2 (antibody, V domains shown)
VH: B2 VH with K5Q, K38R, A102H
VL: B2 VL with S61F, G71R
notes: Mouse monoclonal antibody from hybridoma; also called ML15-6A2.4B10; hybridoma ATCC PTA-7409

Target: T1, Aβ(20-42) globulomer
Test: dot blot densitometry, antibody 0.2 µg/ml; column Aβ(20-42) globulomer (reference)
Method: (§1) Dot blot procedure: [0556] 1) 1 μl each of the different Aβ-standards (in their 5 serial dilutions) were dotted onto the nitrocellulose membrane in a distance of approximately 1 cm from each other. [0557] 2) The Aβ-standards dots were allowed to dry on the nitrocellulose membrane on air for at least 10 min at room temperature (RT)(=dot blot) [0558] 3) Blocking: [0559] The dot blot was incubated with 30 ml 5% low fat milk in TBS for 1.5 h at RT. [0560] 4) Washing: [0561] The blocking solution was discarded and the dot blot was incubated under shaking with 20 ml TTBS for 10 min at RT. [0562] 5) Antibody solution I: [0563] The washing buffer was discarded and the dot blot was incubated with antibody solution I for 2 h at RT [0564] 6) Washing: [0565] The antibody solution I was discarded and the dot blot was incubated under shaking with 20 ml TTBS for 10 min at RT. The washing solution was discarded and the dot blot was incubated under shaking with 20 ml TTBS for 10 min at RT. The washing solution was discarded and the dot blot was incubated under shaking with 20 ml TBS for 10 min at RT. [0566] 7) Antibody solution II: [0567] The washing buffer was discarded and the dot blot was incubated with antibody solution II overnight at RT [0568] 8) Washing: [0569] The antibody solution II was discarded and the dot blot was incubated under shaking with 20 ml TTBS for 10 min at RT. The washing solution was discarded and the dot blot was incubated under shaking with 20 ml TTBS for 10 min at RT. The washing solution was discarded and the dot blot was incubated under shaking with 20 ml TBS for 10 min at RT. [0570] 9) Development: [0571] The washing solution was discarded. The dot blot was developed with 10 ml BM Blue POD Substrate for 10 min. The development was stopped by intense washing of the dot blot with H₂O. Quantitative evaluation was done using a densitometric analysis (GS800 densitometer (BioRad) and software package Quantity one, Version […] (BioRad)) of the dot-intensity. […] This threshold value was determined for every dot-blot independently. The calculated value indicates the relation between recognition of Aβ(20-42) globulomer and the respective Aβ form for the antibody given

relation between recognition of Aβ(20-42) globulomer and the respective Aβ form	Binder
1	B1
1	B2
1	B3
1	B4
1	B5
1	B6
1	B7
1	B8

These binders were tested against T3, Aβ(1-40) monomer (human) (assay: dot blot on nitrocellulose).
T3 construct: also called monomeric Aβ(1-40); Aβ(1-40) monomer, 0.1% NH4OH
Method: as §1

T3 sequence (peptide, as listed by the source): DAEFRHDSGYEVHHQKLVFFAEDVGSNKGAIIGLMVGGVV

binding result	Binder
no binding	B2
no binding	B3
no binding	B4
no binding	B5
no binding	B6
no binding	B7
no binding	B8

What follows are binders tested against T4, sAPPα (Sigma) (UniProt P05067-4 18-612, limits assumed) (assay: dot blot on nitrocellulose).
T4 construct: Bought protein; also called Sigma cat. no; S9564
Method: as §1

T4 sequence (P05067 other isoform, or with tags, fused parts or gaps limits assumed): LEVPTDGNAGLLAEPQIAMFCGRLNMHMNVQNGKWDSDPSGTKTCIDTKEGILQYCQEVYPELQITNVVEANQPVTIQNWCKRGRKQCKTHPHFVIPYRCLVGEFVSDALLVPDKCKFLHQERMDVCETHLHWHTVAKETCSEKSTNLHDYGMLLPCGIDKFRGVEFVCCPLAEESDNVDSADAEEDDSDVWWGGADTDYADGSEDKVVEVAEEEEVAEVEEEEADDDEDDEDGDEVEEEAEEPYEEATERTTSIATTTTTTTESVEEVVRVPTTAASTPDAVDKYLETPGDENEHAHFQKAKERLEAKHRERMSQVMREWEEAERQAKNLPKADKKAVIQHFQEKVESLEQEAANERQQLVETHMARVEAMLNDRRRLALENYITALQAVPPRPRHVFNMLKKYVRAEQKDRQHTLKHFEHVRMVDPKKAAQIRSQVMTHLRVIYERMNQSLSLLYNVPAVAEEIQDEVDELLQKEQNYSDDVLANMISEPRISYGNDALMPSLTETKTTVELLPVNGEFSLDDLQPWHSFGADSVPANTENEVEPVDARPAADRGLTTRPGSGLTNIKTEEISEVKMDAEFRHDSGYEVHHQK

Binder	binding result
B1	no binding (tested: antibody 0.2 µg/ml; first dot 1 pmol)
B2	no binding (tested: antibody 0.2 µg/ml; first dot 1 pmol)
B3	no binding (tested: antibody 0.2 µg/ml; first dot 1 pmol)
B9	no binding (tested: antibody 0.2 µg/ml; first dot 1 pmol)
B4	no binding (tested: antibody 0.2 µg/ml; first dot 1 pmol)
B5	no binding (tested: antibody 0.2 µg/ml; first dot 1 pmol)
B6	no binding (tested: antibody 0.2 µg/ml; first dot 1 pmol)
B7	no binding (tested: antibody 0.2 µg/ml; first dot 1 pmol)
B8	no binding (tested: antibody 0.2 µg/ml; first dot 1 pmol)

Target: T2, Aβ(12-42) globulomer
Test: dot blot on nitrocellulose
Method: as §1

binding result	Binder
no binding	B5
no binding	B6
no binding	B7
no binding	B8

Target: T2, Aβ(12-42) globulomer
Test: dot blot, antibody 0.2 µg/ml
Method: Dot blot procedure: [0556] 1) 1 μl each of the different Aβ-standards (in their 5 serial dilutions) were dotted onto the nitrocellulose membrane in a distance of approximately 1 cm from each other. [0557] 2) The Aβ-standards dots were allowed to dry on the nitrocellulose membrane on air for at least 10 min at room temperature (RT)(=dot blot) [0558] 3) Blocking: [0559] The dot blot was incubated with 30 ml 5% low fat milk in TBS for 1.5 h at RT. [0560] 4) Washing: [0561] The blocking solution was discarded and the dot blot was incubated under shaking with 20 ml TTBS for 10 min at RT. [0562] 5) Antibody solution I: [0563] The washing buffer was discarded and the dot blot was incubated with antibody solution I for 2 h at RT [0564] 6) Washing: [0565] The antibody solution I was discarded and the dot blot was incubated under shaking with 20 ml TTBS for 10 min at RT. The washing solution was discarded and the dot blot was incubated under shaking with 20 ml TTBS for 10 min at RT. […] Quantitative evaluation was done using a densitometric analysis (GS800 densitometer (BioRad) and software package Quantity one, Version […] (BioRad)) of the dot-intensity. […] This threshold value was determined for every dot-blot independently. The calculated value indicates the relation between recognition of Aβ(20-42) globulomer and the respective Aβ form for the antibody given

binding result	Binder
binds	B2
binds	B3

The binders below were run against T4, sAPPα (Sigma) (assay: dot blot densitometry, antibody 0.2 µg/ml; column sAPPα).
Method: as §1

relation between recognition of Aβ(20-42) globulomer and the respective Aβ form	Binder
> 1000	B1
> 100	B2
> 100	B3
> 1000	B9
> 100	B4
> 1000	B5
> 1000	B6
> 1000	B7
> 1000	B8

These binders were tested against T3, Aβ(1-40) monomer (assay: dot blot densitometry, antibody 0.2 µg/ml; column Aβ(1-40) monomer, 0.1% NH4OH).
Method: as §1

relation between recognition of Aβ(20-42) globulomer and the respective Aβ form	Binder
> 10000	B2
> 10000	B3
> 100000	B5
> 100000	B6
> 100000	B8

Target: T2, Aβ(12-42) globulomer
Test: dot blot densitometry, antibody 0.2 µg/ml; column Aβ(12-42) globulomer
Method: as §1

relation between recognition of Aβ(20-42) globulomer and the respective Aβ form	Binder
12	B1
29	B4
> 100000	B5
> 100000	B6
> 100000	B7
> 100000	B8

The binders below were run against T3, Aβ(1-40) monomer (assay: dot blot densitometry, antibody 0.2 µg/ml; column Aβ(1-40) monomer, 0.1% NaOH).
Method: as §1

relation between recognition of Aβ(20-42) globulomer and the respective Aβ form	Binder
> 10000	B3
> 100000	B5
> 100000	B6
> 100000	B7
> 100000	B8
